Results on 78 sequences are retold here after the supplement of paper PMC10126150.

± gives the standard deviation of the averaged measurements.
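Note: ATP exposure 15 min at 22 °C before imaging.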

This series relates to ATP. Briefly: switch fluorescence ratio, 500 uM ATP over buffer (Cy3 cluster intensity, sum of 5 cycles each) (fold (ratio)); higher = stronger signal-on switching upon ATP binding; sequences stand for … in TCGTCGGCAGCGTCAGATGTGTATAAGAGACAGTTTTTTTTTTTTTTTTTTTTTTTTT…TC. Particulars: aptamer strand: ATP DNA aptamer (quencher-CACCTGGGGGAGTATTGCGGAGGAAGG + anchor), 100 nM annealed; ATP concentration: 500 uM. The essentials: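 Clusters carrying Cy3-labelled switching strands on a modified Illumina MiSeq flow-cell were annealed to 100 nM quencher-labelled ATP aptamer and imaged in selection buffer. They were imaged again after 15 min with 500 uM ATP at 22 °C, over five buffer/ATP cycles with NaOH stripping and re-annealing in between. For each cluster, the fluorescence ratio is the summed Cy3 intensity of the target cycles divided by that of the buffer cycles, averaged per switch-domain sequence. Clusters outside 100-1000 RFU were left out.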
On to ATCAAAGGGA, for which the switch fluorescence ratio is 0.976 ± 0.048.
Then AGGGGTCGCG, with 0.981 ± 0.0054; and CGCAAACGCA, with 3.62 ± 0.17; and ACTACTACCA, with 1.31 ± 0.048.
Then CGGGAGACGG, with 1.31 ± 0.26.
Then ATTGTTGAAT, with 0.993 ± 0.015; and GGAGAGAAGC, with 1.02 ± 0.076.
With TAAGTTGTAA, the switch fluorescence ratio came to 0.999 ± 0.019.
Then ATTATACAGC, with 0.993 ± 0.025; and ACGTTGGGGC, with 1.04 ± 0.027; and TCGTATAAGG, with 0.982 ± 0.037.
Then GGGGTGGACG, with 1.07 ± 0.021; and CGATTAGGTA, with 1 ± 0.041.
Then TGGGGTTA, with 0.98448 ± 0.00037; and AGGGGTGTAG, with 1.03 ± 0.057; and GGGGGAAGGA, with 0.995 ± 0.036.
Consider ATTCATGCTC, for which the switch fluorescence ratio amounted to 1.03 ± 0.031.
Then GGGCCCTTTT, with 0.976 ± 0.019; and AGAACAGGTG, with 3.18 ± 0.27.
Then ATGGATGTTA, with 0.978 ± 0.032.
Consider GGGTTTAGAG, for which the switch fluorescence ratio was 0.9877 ± 0.0093.
Then TGCAGTAATA, with 1.53 ± 0.13; and TGCCGGGGTT, with 1.1 ± 0.2.
Then TTATTCAAGG, with 0.99 ± 0.017; and AGGGGGTGGT, with 0.987 ± 0.043; and TCGGGGGTTC, with 1.06 ± 0.027.
Then GGGGTAGGAC, with 1.01 ± 0.017.
Turning to GTCGGGGGTG, the switch fluorescence ratio is 0.983 ± 0.041.
Then AAATGGGGAA, with 1.004 ± 0.0069; and TCCACGTTGG, with 1.01 ± 0.0067; and CGGGTACCGC, with 1.05 ± 0.053.
Then TTGCTTTTAA, with 0.991 ± 0.013; and AAGTAGTCGA, with 0.9838 ± 0.0041; and TGTTTGGTGC, with 1.54 ± 0.8.
Then GTTTTAAGGT, with 1.017 ± 0.0067; and TTGGCATACG, with 1.06 ± 0.034.
Regarding TTATGGTGT, the switch fluorescence ratio amounted to 1.0044 ± 0.00076.
In the case of TCCGGTTGCA, the switch fluorescence ratio was 2.49 ± 0.12.
On to ATGTGAAGAG, for which the switch fluorescence ratio turned out to be 0.9952 ± 0.003.
Then ATTTGCAAAG, with 1.12 ± 0.21; and TTTGGACGCA, with 1.12 ± 0.12; and TCGGGCGGGG, with 1.036 ± 0.0098.
Then CGGGTGATCG, with 0.96 ± 0.043; and GGGTGAGGTG, with 0.98 ± 0.068; and TAGCTGTAAT, with 1.02 ± 0.046.
Consider TAAATAGTAC, for which the switch fluorescence ratio is 1.07 ± 0.032.
With AAAAAACTAT, the switch fluorescence ratio came to 1.02 ± 0.018.
Then GCCGCTGTCG, with 0.963 ± 0.045.
Then AGGGCGCGTG, with 0.995 ± 0.05.
For the sequence CGGATCCCGA, the switch fluorescence ratio was found to be 0.995 ± 0.018.
Then GTTTGTGTCA, with 0.993 ± 0.052.
Turning to GAAAGCCCGT, the switch fluorescence ratio turned out to be 0.989 ± 0.021.
Then CATATAAGTA, with 0.9809 ± 0.0025.
Consider TCTGCCACCT, for which the switch fluorescence ratio stood at 1.023 ± 0.0075.
GGATGTGCTG: the switch fluorescence ratio is 1.04 ± 0.049.
Take ATTCAACGGT: the switch fluorescence ratio was 1.02 ± 0.0048.
Turning to AAGGTATCGG, the switch fluorescence ratio was found to be 0.987 ± 0.037.
Then TAAAATTCGG, with 1.01 ± 0.018.
With TCTTTCGGTG, the switch fluorescence ratio came out at 1.02 ± 0.04.
In the case of AGAATGGATC, the switch fluorescence ratio is 1.01 ± 0.012.
Regarding GGGTGTGCAT, the switch fluorescence ratio was 1.04 ± 0.016.
Then GAGTAAGTGG, with 0.99 ± 0.039.
Then TAATTGCTTT, with 0.966 ± 0.029; and ACCGAATGTT, with 0.999 ± 0.022; and ACGCTTTGCA, with 0.987 ± 0.01.
With TCTGTGGTGT, the switch fluorescence ratio turned out to be 1.026 ± 0.0028.
Then ATATGCATGG, with 0.969 ± 0.014; and ATGGGCTGAA, with 1.021 ± 0.0092; and GGCTGTACTT, with 1.03 ± 0.047.
As for TTCGGGGTTT, the switch fluorescence ratio stood at 1.02 ± 0.06.
Then TGGGTGCTGA, with 0.954 ± 0.052.
Then CGATTTGAGG, with 0.9967 ± 0.0079; and TCATGTACCG, with 1.05 ± 0.044.
Then TTTTTGGACC, with 1.1 ± 0.22; and TGCCATGTTT, with 0.966 ± 0.014; and GAAGGTTATG, with 1 ± 0.015.
GTTGAATTAT: the switch fluorescence ratio is 0.987 ± 0.016.
Then GAGGGGGCGG, with 0.999 ± 0.025.
